Assay results reported in paper PMC7441159, “The metal binding site composition of the cation diffusion facilitator protein MamM cytoplasmic domain impacts its metal responsivity” (Scientific Reports, 2020).
Changes are numbered by the printed parent chain. Names and notes keep the numbering of the source.

B1: MamM CTD H264E (domain or fragment, Magnetospirillum gryphiswaldense MSR-1, UniProt V6F235 215-318, looked up)
chain: EAVQNRIVEAAERVPGVRGVIHLRARYVGQDIWADMIIGVDPENTVEQAEEICEAVQAAVCGKIRRIESLHVSAEAREIGDTTKPSFSDQPLSFDEVMLSKVDN
notes: MamM cytoplasmic C-terminal domain (CTD), Magnetospirillum gryphiswaldense MSR-1, UniProt Q6NE57 residues 215-318; A thrombin site follows the His tag
B2: MamM CTD D249N (domain or fragment, Magnetospirillum gryphiswaldense MSR-1, UniProt V6F235 215-318, looked up)
chain: B1 chain with D35N, E50H
notes: as for B1
B3: MamM CTD H285D (domain or fragment, Magnetospirillum gryphiswaldense MSR-1, UniProt V6F235 215-318, looked up)
chain: B1 chain with E50H, H71D
notes: as for B1
B4: MamM CTD D249E (domain or fragment, Magnetospirillum gryphiswaldense MSR-1, UniProt V6F235 215-318, looked up)
chain: B1 chain with D35E, E50H
notes: as for B1
B5: MamM CTD E289D (domain or fragment, Magnetospirillum gryphiswaldense MSR-1, UniProt V6F235 215-318, looked up)
chain: B1 chain with E50H, E75D
notes: as for B1
B6: MamM CTD H264E-E289H (domain or fragment, Magnetospirillum gryphiswaldense MSR-1, UniProt V6F235 215-318, looked up)
chain: B1 chain with E75H
notes: MamM cytoplasmic C-terminal domain (CTD), Magnetospirillum gryphiswaldense MSR-1, UniProt Q6NE57 residues 215-318; A thrombin site follows the His tag; also called E289H-H264E
B7: MamM CTD D249H (domain or fragment, Magnetospirillum gryphiswaldense MSR-1, UniProt V6F235 215-318, looked up)
chain: B1 chain with D35H, E50H
notes: as for B1
B8: MamM CTD E289H (domain or fragment, Magnetospirillum gryphiswaldense MSR-1, UniProt V6F235 215-318, looked up)
chain: B1 chain with E50H, E75H
notes: as for B1
B9: MamM CTD D249H-H285D (domain or fragment, Magnetospirillum gryphiswaldense MSR-1, UniProt V6F235 215-318, looked up)
chain: B1 chain with D35H, E50H, H71D
notes: as for B1

Target: the molecule itself
Experiment: crystal structure; homodimer seen in the crystal; vapor diffusion at 293 K, protein at 20 mg/mL in 10 mM Tris pH 8.0, 150 mM NaCl, 5 mM β-mercaptoethanol and 3.375 mM metal solution (ZnCl2, CdCl2, MnCl2, NiCl2 or CuSO4)

Protein | binding result
B1 | binds
B2 | binds
B3 | binds
B4 | binds
B5 | binds
B6 | binds
B7 | binds
B8 | binds
B9 | binds
